Ends that are not written are not given here.
Legend:
[1] = biological target: CHD5 PHD1 finger (338-393), GST tag cleaved (UniProt Q8TDI0 338-393); test: SPR
[2] = biological target: CHD5 PHD2 finger (413-468), GST tag cleaved (UniProt Q8TDI0 413-468); test: SPR
[3] = biological target: CHD5 tandem PHD1-2 (338-468), GST tag cleaved (UniProt Q8TDI0 338-468); test: SPR
[4] = biological target: CHD5 tandem PHD1-2 as used in the ALPHA (UniProt Q8TDI0 338-468); test: AlphaScreen or HTRF
Sequence of CHD5 tandem PHD1-2 as used in the ALPHA (Q8TDI0 338-468): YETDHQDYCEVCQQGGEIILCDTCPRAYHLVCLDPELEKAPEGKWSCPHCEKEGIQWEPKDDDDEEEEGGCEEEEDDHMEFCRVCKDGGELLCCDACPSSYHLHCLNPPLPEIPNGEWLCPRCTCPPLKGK

Sequence of CHD5 tandem PHD1-2 (338-468), GST tag cleaved (Q8TDI0 338-468): as above
Sequence of CHD5 PHD1 finger (338-393), GST tag cleaved (Q8TDI0 338-393): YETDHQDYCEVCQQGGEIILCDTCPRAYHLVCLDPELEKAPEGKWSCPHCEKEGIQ
Sequence of CHD5 PHD2 finger (413-468), GST tag cleaved (Q8TDI0 413-468): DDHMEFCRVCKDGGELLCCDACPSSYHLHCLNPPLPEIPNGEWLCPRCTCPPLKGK

Row | Kd [1] | koff [1] | kon [1] | Kd [2] | koff [2] | kon [2] | Kd [3] | koff [3] | kon [3] | binding result [4] | Binder
1 | 98.8 µM | 0.0103 ± 0.0001 s⁻¹ | 104 ± 7 M⁻¹ s⁻¹ | 34.6 µM | 0.0136 ± 0.0003 s⁻¹ | 393 ± 13 M⁻¹ s⁻¹ | 9.18 µM | 0.00348 s⁻¹ | 379 ± 7 M⁻¹ s⁻¹ | – | ARTKQTARKST-biotin (peptide, UniProt P68431 2-12, looked up) [Histone H3 peptide (1-11) with C-terminal biotin]
2 | – | – | – | – | – | – | – | – | – | binds | ARTKQTARKST (peptide, UniProt P68431 2-12, looked up) [Histone H3 peptide (1-11) with C-terminal 6x-histidine]
